Measured values from article PMC7217667.

T1: OsMYB80 (rice, UniProt Q7XQN1 1-372)
T1 sequence: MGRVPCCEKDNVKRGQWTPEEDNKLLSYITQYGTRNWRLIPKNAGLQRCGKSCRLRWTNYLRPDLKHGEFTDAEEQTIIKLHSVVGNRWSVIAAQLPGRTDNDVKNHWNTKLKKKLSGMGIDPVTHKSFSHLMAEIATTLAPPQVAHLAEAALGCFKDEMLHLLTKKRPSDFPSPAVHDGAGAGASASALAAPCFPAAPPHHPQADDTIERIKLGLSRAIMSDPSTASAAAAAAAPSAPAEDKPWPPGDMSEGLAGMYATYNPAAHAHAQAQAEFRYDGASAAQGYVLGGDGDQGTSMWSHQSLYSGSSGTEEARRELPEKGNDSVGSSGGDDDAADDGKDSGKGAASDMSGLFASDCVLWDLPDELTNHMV

B1: OsMYB80 promoter OsMYB80-1 probe (dsDNA)
DNA 1: TGAACCTAAGGCTGTAAATTTGTTCGGACAAAGGATCATT
DNA 2: AATGATCCTTTGTCCGAACAAATTTACAGCCTTAGGTTCA
B2: OsMYB80 promoter OsMYB80-2 probe (dsDNA)
DNA 1: ACTCATAGCCTGCTATGTTCACAAGGTTTTATATTACTGA
DNA 2: TCAGTAATATAAAACCTTGTGAACATAGCAGGCTATGAGT
B3: LOC_Os06g11135 promoter probe (dsDNA)
DNA 1: TCTACCCTCACCAACCACGCTCCCA
DNA 2: TGGGAGCGTGGTTGGTGAGGGTAGA
B4: LOC_Os01g50750 promoter probe (dsDNA)
DNA 1: CACCTAAACAAAACCAAACACAAGC
DNA 2: GCTTGTGTTTGGTTTTGTTTAGGTG
B5: LOC_Os01g04080 promoter probe (dsDNA)
DNA 1: CCAAATAAACGAGAAAACGGCAAAGGCATATGTCATTCAC
DNA 2: GTGAATGACATATGCCTTTGCCGTTTTCTCGTTTATTTGG
B6: LOC_Os04g51990 promoter probe (dsDNA)
DNA 1: CTGCAGGAAATGGAAAACCATCTTATAGAAG
DNA 2: CTTCTATAAGATGGTTTTCCATTTCCTGCAG
B7: LOC_Os09g36730 promoter probe (dsDNA)
DNA 1: ACCTCACTTTACACCTACCTTGAAGGTT
DNA 2: AACCTTCAAGGTAGGTGTAAAGTGAGGT
B8: LOC_Os01g27170 promoter probe (dsDNA)
DNA 1: CCATCAAAATATATTGACTGTTGGATTTAATG
DNA 2: CATTAAATCCAACAGTCAATATATTTTGATGG
B9: LOC_Os08g38810 promoter probe (dsDNA)
DNA 1: CCTGGTCAGTCCTGTTGCACGGCTATATG
DNA 2: CATATAGCCGTGCAACAGGACTGACCAGG
B10: LOC_Os07g40830 promoter probe (dsDNA)
DNA 1: CACGCATTCAGGAAACCAGAAGGATC
DNA 2: GATCCTTCTGGTTTCCTGAATGCGTG
B11: LOC_Os08g20200 promoter probe (dsDNA)
DNA 1: TAAGCCAGCTACAACTGACCAACTC
DNA 2: GAGTTGGTCAGTTGTAGCTGGCTTA
B12: LOC_Os03g35920 promoter probe (dsDNA)
DNA 1: GATCTGCATTTGTTAGTTCACCAGCAC
DNA 2: GTGCTGGTGAACTAACAAATGCAGATC

Target: T1, OsMYB80
Test: EMSA

Binding result, binds:
B1
B2
B3
B4
B5
B6
B7
B8
B9
B10
B11
B12
